Data taken from US20230235013A1 (MABSOLVE, published 2023).

The binders below were run against T1, Histidine-tagged recombinant human FcγRI (CD64) (human, UniProt P12314 16-288) (assay: SPR, culture supernatant, captured His-FcγRI;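 further: biacore T200 SPR at 25 °C, anti-His capture, supernatants of HEK293 cells expressing IgG1 Fc variants injected 1 min, reference-subtracted response read 55 s after injection start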).
T1 construct: bought; also called Sino Biological Cat. No. 12056-H08H
Description: Binding analysis was carried out by surface plasmon resonance at 25° C. using a Biacore® T200 instrument with Biacore® T200 control software. The running buffer (HBS-EP+) consisted of 0.01 M HEPES pH 7.4, containing 0.15 M NaCl, 3 mM EDTA, and 0.05% v/v Surfactant P20. The sample compartment was held at 4° C. during analysis.
The cell was activated by treatment with EDC/NHS for 7 min. The antibody was diluted to 5 μg/mL in 10 mM sodium acetate pH 4.5 and injected for 7 min at 5 μL/min. The flow cell was deactivated by injection of 1M ethanolamine for 7 min. This process was repeated in the absence of anti-his antibody on a separate flow cell to generate a reference surface. […] Samples of undiluted culture supernatants from HEK293 cells expressing human IgG1 antibodies comprising variant Fc regions were injected for 1 min at 30 μL/min and allowed to disassociate for 2 min. […] Therefore, regeneration between cycles was not necessary. Responses on the test flow cell (coupled with anti-His antibody) were analysed after subtraction of responses on the control flow cell (sham-coupled). The relative binding response was measured 55 sec after the beginning of sample injection. To account for any possible drift in response due to slow dissociation of the His-tagged FcγRI, the binding response was measured relative to a baseline interpolated between report points located before sample injection and at the end of dissociation.
The whole experiment was repeated three times. Due to the relatively crude nature of the samples (variable refractive index, presence of culture media and other cellular products), some sensorgrams were unsatisfactory and were eliminated from analysis. The mean and standard deviation of binding response was then calculated for each sample.

Binder	Mean binding response [RU]
anti-CD20 human IgG1 L234R/L235V/G236R (antibody, copies: 2 + 2) heavy: QVQLQQPGAELVKPGASVKMSCKASGYTFTSYNMHWVKQTPGRGLEWIGAIYPGNGDTSYNQKFKGKATLTADKSSSTAYMQLSSLTSEDSAVYYCARSTYYGGDWYFNVWGAGTTVTVSSASTKGPSVFPLAPSSKSTSGGTAALGCLVKDYFPEPVTVSWNSGALTSGVHTFPAVLQSSGLYSLSSVVTVPSSSLGTQTYICNVNHKPSNTKVDKKVEPKSCDKTHTCPPCPAPERVRGPSVFLFPPKPKDTLMISRTPEVTCVVVDVSHEDPEVKFNWYVDGVEVHNAKTKPREEQYNSTYRVVSVLTVLHQDWLNGKEYKCKVSNKALPAPIEKTISKAKGQPREPQVYTLPPSRDELTKNQVSLTCLVKGFYPSDIAVEWESNGQPENNYKTTPPVLDSDGSFFLYSKLTVDKSRWQQGNVFSCSVMHEALHNHYTQKSLSLSPGK light: QIVLSQSPAILSASPGEKVTMTCRASSSVSYIHWFQQKPGSSPKPWIYATSNLASGVPVRFSGSGSGTSYSLTISRVEAEDAATYYCQQWTSNPPTFGGGTKLEIKRTVAAPSVFIFPPSDEQLKSGTASVVCLLNNFYPREAKVQWKVDNALQSGNSQESVTEQDSKDSTYSLSSTLTLSKADYEKHKVYACEVTHQGLSSPVTKSFNRGEC	32.5
anti-CD20 human IgG1 L234S/L235I/G236R (antibody, also called 2-49; copies: 2 + 2) heavy: QVQLQQPGAELVKPGASVKMSCKASGYTFTSYNMHWVKQTPGRGLEWIGAIYPGNGDTSYNQKFKGKATLTADKSSSTAYMQLSSLTSEDSAVYYCARSTYYGGDWYFNVWGAGTTVTVSSASTKGPSVFPLAPSSKSTSGGTAALGCLVKDYFPEPVTVSWNSGALTSGVHTFPAVLQSSGLYSLSSVVTVPSSSLGTQTYICNVNHKPSNTKVDKKVEPKSCDKTHTCPPCPAPESIRGPSVFLFPPKPKDTLMISRTPEVTCVVVDVSHEDPEVKFNWYVDGVEVHNAKTKPREEQYNSTYRVVSVLTVLHQDWLNGKEYKCKVSNKALPAPIEKTISKAKGQPREPQVYTLPPSRDELTKNQVSLTCLVKGFYPSDIAVEWESNGQPENNYKTTPPVLDSDGSFFLYSKLTVDKSRWQQGNVFSCSVMHEALHNHYTQKSLSLSPGK light: QIVLSQSPAILSASPGEKVTMTCRASSSVSYIHWFQQKPGSSPKPWIYATSNLASGVPVRFSGSGSGTSYSLTISRVEAEDAATYYCQQWTSNPPTFGGGTKLEIKRTVAAPSVFIFPPSDEQLKSGTASVVCLLNNFYPREAKVQWKVDNALQSGNSQESVTEQDSKDSTYSLSSTLTLSKADYEKHKVYACEVTHQGLSSPVTKSFNRGEC	12
anti-CD20 human IgG1 L234S/L235N/G236R (antibody, copies: 2 + 2) heavy: QVQLQQPGAELVKPGASVKMSCKASGYTFTSYNMHWVKQTPGRGLEWIGAIYPGNGDTSYNQKFKGKATLTADKSSSTAYMQLSSLTSEDSAVYYCARSTYYGGDWYFNVWGAGTTVTVSSASTKGPSVFPLAPSSKSTSGGTAALGCLVKDYFPEPVTVSWNSGALTSGVHTFPAVLQSSGLYSLSSVVTVPSSSLGTQTYICNVNHKPSNTKVDKKVEPKSCDKTHTCPPCPAPESNRGPSVFLFPPKPKDTLMISRTPEVTCVVVDVSHEDPEVKFNWYVDGVEVHNAKTKPREEQYNSTYRVVSVLTVLHQDWLNGKEYKCKVSNKALPAPIEKTISKAKGQPREPQVYTLPPSRDELTKNQVSLTCLVKGFYPSDIAVEWESNGQPENNYKTTPPVLDSDGSFFLYSKLTVDKSRWQQGNVFSCSVMHEALHNHYTQKSLSLSPGK light: QIVLSQSPAILSASPGEKVTMTCRASSSVSYIHWFQQKPGSSPKPWIYATSNLASGVPVRFSGSGSGTSYSLTISRVEAEDAATYYCQQWTSNPPTFGGGTKLEIKRTVAAPSVFIFPPSDEQLKSGTASVVCLLNNFYPREAKVQWKVDNALQSGNSQESVTEQDSKDSTYSLSSTLTLSKADYEKHKVYACEVTHQGLSSPVTKSFNRGEC	22.7
anti-CD20 human IgG1 L234S/L235Q/G236R (antibody, copies: 2 + 2) heavy: QVQLQQPGAELVKPGASVKMSCKASGYTFTSYNMHWVKQTPGRGLEWIGAIYPGNGDTSYNQKFKGKATLTADKSSSTAYMQLSSLTSEDSAVYYCARSTYYGGDWYFNVWGAGTTVTVSSASTKGPSVFPLAPSSKSTSGGTAALGCLVKDYFPEPVTVSWNSGALTSGVHTFPAVLQSSGLYSLSSVVTVPSSSLGTQTYICNVNHKPSNTKVDKKVEPKSCDKTHTCPPCPAPESQRGPSVFLFPPKPKDTLMISRTPEVTCVVVDVSHEDPEVKFNWYVDGVEVHNAKTKPREEQYNSTYRVVSVLTVLHQDWLNGKEYKCKVSNKALPAPIEKTISKAKGQPREPQVYTLPPSRDELTKNQVSLTCLVKGFYPSDIAVEWESNGQPENNYKTTPPVLDSDGSFFLYSKLTVDKSRWQQGNVFSCSVMHEALHNHYTQKSLSLSPGK light: QIVLSQSPAILSASPGEKVTMTCRASSSVSYIHWFQQKPGSSPKPWIYATSNLASGVPVRFSGSGSGTSYSLTISRVEAEDAATYYCQQWTSNPPTFGGGTKLEIKRTVAAPSVFIFPPSDEQLKSGTASVVCLLNNFYPREAKVQWKVDNALQSGNSQESVTEQDSKDSTYSLSSTLTLSKADYEKHKVYACEVTHQGLSSPVTKSFNRGEC	29.6
anti-CD20 human IgG1 L234S/L235A/G236R (antibody, also called 1-137; copies: 2 + 2) heavy: not shown light: QIVLSQSPAILSASPGEKVTMTCRASSSVSYIHWFQQKPGSSPKPWIYATSNLASGVPVRFSGSGSGTSYSLTISRVEAEDAATYYCQQWTSNPPTFGGGTKLEIKRTVAAPSVFIFPPSDEQLKSGTASVVCLLNNFYPREAKVQWKVDNALQSGNSQESVTEQDSKDSTYSLSSTLTLSKADYEKHKVYACEVTHQGLSSPVTKSFNRGEC	29.6
anti-CD20 human IgG1 L234S/L235K/G236R (antibody, copies: 2 + 2) heavy: QVQLQQPGAELVKPGASVKMSCKASGYTFTSYNMHWVKQTPGRGLEWIGAIYPGNGDTSYNQKFKGKATLTADKSSSTAYMQLSSLTSEDSAVYYCARSTYYGGDWYFNVWGAGTTVTVSSASTKGPSVFPLAPSSKSTSGGTAALGCLVKDYFPEPVTVSWNSGALTSGVHTFPAVLQSSGLYSLSSVVTVPSSSLGTQTYICNVNHKPSNTKVDKKVEPKSCDKTHTCPPCPAPESKRGPSVFLFPPKPKDTLMISRTPEVTCVVVDVSHEDPEVKFNWYVDGVEVHNAKTKPREEQYNSTYRVVSVLTVLHQDWLNGKEYKCKVSNKALPAPIEKTISKAKGQPREPQVYTLPPSRDELTKNQVSLTCLVKGFYPSDIAVEWESNGQPENNYKTTPPVLDSDGSFFLYSKLTVDKSRWQQGNVFSCSVMHEALHNHYTQKSLSLSPGK light: QIVLSQSPAILSASPGEKVTMTCRASSSVSYIHWFQQKPGSSPKPWIYATSNLASGVPVRFSGSGSGTSYSLTISRVEAEDAATYYCQQWTSNPPTFGGGTKLEIKRTVAAPSVFIFPPSDEQLKSGTASVVCLLNNFYPREAKVQWKVDNALQSGNSQESVTEQDSKDSTYSLSSTLTLSKADYEKHKVYACEVTHQGLSSPVTKSFNRGEC	23.8
anti-CD20 human IgG1 L234S/L235R/G236R (antibody, also called 2-51; copies: 2 + 2) heavy: QVQLQQPGAELVKPGASVKMSCKASGYTFTSYNMHWVKQTPGRGLEWIGAIYPGNGDTSYNQKFKGKATLTADKSSSTAYMQLSSLTSEDSAVYYCARSTYYGGDWYFNVWGAGTTVTVSSASTKGPSVFPLAPSSKSTSGGTAALGCLVKDYFPEPVTVSWNSGALTSGVHTFPAVLQSSGLYSLSSVVTVPSSSLGTQTYICNVNHKPSNTKVDKKVEPKSCDKTHTCPPCPAPESRRGPSVFLFPPKPKDTLMISRTPEVTCVVVDVSHEDPEVKFNWYVDGVEVHNAKTKPREEQYNSTYRVVSVLTVLHQDWLNGKEYKCKVSNKALPAPIEKTISKAKGQPREPQVYTLPPSRDELTKNQVSLTCLVKGFYPSDIAVEWESNGQPENNYKTTPPVLDSDGSFFLYSKLTVDKSRWQQGNVFSCSVMHEALHNHYTQKSLSLSPGK light: QIVLSQSPAILSASPGEKVTMTCRASSSVSYIHWFQQKPGSSPKPWIYATSNLASGVPVRFSGSGSGTSYSLTISRVEAEDAATYYCQQWTSNPPTFGGGTKLEIKRTVAAPSVFIFPPSDEQLKSGTASVVCLLNNFYPREAKVQWKVDNALQSGNSQESVTEQDSKDSTYSLSSTLTLSKADYEKHKVYACEVTHQGLSSPVTKSFNRGEC	11.1
anti-CD20 human IgG1 L234S/L235E/G236R (antibody, also called 2-46; copies: 2 + 2) heavy: QVQLQQPGAELVKPGASVKMSCKASGYTFTSYNMHWVKQTPGRGLEWIGAIYPGNGDTSYNQKFKGKATLTADKSSSTAYMQLSSLTSEDSAVYYCARSTYYGGDWYFNVWGAGTTVTVSSASTKGPSVFPLAPSSKSTSGGTAALGCLVKDYFPEPVTVSWNSGALTSGVHTFPAVLQSSGLYSLSSVVTVPSSSLGTQTYICNVNHKPSNTKVDKKVEPKSCDKTHTCPPCPAPESERGPSVFLFPPKPKDTLMISRTPEVTCVVVDVSHEDPEVKFNWYVDGVEVHNAKTKPREEQYNSTYRVVSVLTVLHQDWLNGKEYKCKVSNKALPAPIEKTISKAKGQPREPQVYTLPPSRDELTKNQVSLTCLVKGFYPSDIAVEWESNGQPENNYKTTPPVLDSDGSFFLYSKLTVDKSRWQQGNVFSCSVMHEALHNHYTQKSLSLSPGK light: QIVLSQSPAILSASPGEKVTMTCRASSSVSYIHWFQQKPGSSPKPWIYATSNLASGVPVRFSGSGSGTSYSLTISRVEAEDAATYYCQQWTSNPPTFGGGTKLEIKRTVAAPSVFIFPPSDEQLKSGTASVVCLLNNFYPREAKVQWKVDNALQSGNSQESVTEQDSKDSTYSLSSTLTLSKADYEKHKVYACEVTHQGLSSPVTKSFNRGEC	11.6
anti-CD20 human IgG1 L234S/L235M/G236R (antibody, copies: 2 + 2) heavy: QVQLQQPGAELVKPGASVKMSCKASGYTFTSYNMHWVKQTPGRGLEWIGAIYPGNGDTSYNQKFKGKATLTADKSSSTAYMQLSSLTSEDSAVYYCARSTYYGGDWYFNVWGAGTTVTVSSASTKGPSVFPLAPSSKSTSGGTAALGCLVKDYFPEPVTVSWNSGALTSGVHTFPAVLQSSGLYSLSSVVTVPSSSLGTQTYICNVNHKPSNTKVDKKVEPKSCDKTHTCPPCPAPESMRGPSVFLFPPKPKDTLMISRTPEVTCVVVDVSHEDPEVKFNWYVDGVEVHNAKTKPREEQYNSTYRVVSVLTVLHQDWLNGKEYKCKVSNKALPAPIEKTISKAKGQPREPQVYTLPPSRDELTKNQVSLTCLVKGFYPSDIAVEWESNGQPENNYKTTPPVLDSDGSFFLYSKLTVDKSRWQQGNVFSCSVMHEALHNHYTQKSLSLSPGK light: QIVLSQSPAILSASPGEKVTMTCRASSSVSYIHWFQQKPGSSPKPWIYATSNLASGVPVRFSGSGSGTSYSLTISRVEAEDAATYYCQQWTSNPPTFGGGTKLEIKRTVAAPSVFIFPPSDEQLKSGTASVVCLLNNFYPREAKVQWKVDNALQSGNSQESVTEQDSKDSTYSLSSTLTLSKADYEKHKVYACEVTHQGLSSPVTKSFNRGEC	32
